Data as given in patent US6828106 (dated 2004).
Where no end group is shown, it is not given here. fluorescein or rhodamine = not defined here

Legend:
[1] = biological target: T1, peptide C labelled with rhodamine (CR) (not fully specified; N-terminal acetyl; C-terminal amide; labelled with rhodamine (or vice versa with fluorescein)); experiment: FRET between fluorescein- and rhodamine-labelled peptides
T1 construct: Artificial designer peptide, one partner of a heterodimeric coiled coil
T1 peptide: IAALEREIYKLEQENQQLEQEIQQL

[2] = biological target: the molecule itself; experiment: FRET between the fluorescein- and rhodamine-labelled forms of the same peptide (homodimer)
[3] = biological target: T2, peptide 1 (Example 8), labeled with fluorescein (labeled with fluorescein (site not stated)); experiment: FRET (fluorescein/rhodamine) and fluorescence polarization (fluorescein/biotin with streptavidin), 6 µM total peptide, 1:1
T2 construct: Heterodimer partner in the chymotrypsin assays
T2 peptide: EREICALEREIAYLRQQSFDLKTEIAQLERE

[4] = biological target: the molecule itself; experiment: FRET (fluorescein/rhodamine) and fluorescence polarization (fluorescein/biotin), 6 µM total peptide, 6:1
[5] = biological target: T3, reporter peptide 1 (Example 10), labeled with fluorescein (labeled with fluorescein (site not stated)); experiment: FRET (fluorescein/rhodamine), 5 µM total peptide, 1:1
T3 construct: Heterodimer partner in the thrombin assay
T3 peptide: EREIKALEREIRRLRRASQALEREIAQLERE

B1: peptide B labelled with fluorescein (BF) (peptide)
peptide: IAALRERICYLRERNQQLRQRIQQL
modifications: not fully specified; also: fluorescein label, site not given here
notes: Artificial designer peptide, one partner of a heterodimeric coiled coil
B1: binds [1].

B2: Peptide 2 (Example 3, TEV protease cleavage site) (peptide)
peptide: RMKQLEDKVENLYSQSYHLENEVAC(fluorescein or rhodamine)LKKLVGER
modifications: reading uncertain
notes: GCN4-derived homodimeric reporter; The fluorescein- and rhodamine-labelled forms are written as one molecule
B2: binds [2].

B3: Peptide 4 (Example 5, caspase 2, 3, 7 site) (peptide)
peptide: RMKQLEDKVEELLDENDHLENEVACLKKLVGER
modifications: also: fluorescein or rhodamine label, site not given here
notes: GCN4-derived homodimeric reporter; Both labelled forms are written as one molecule
B3: binds [2].

B4: peptide 2 (Example 8), labeled with rhodamine (FRET) or biotin (FP) (peptide)
peptide: LRQRIQCLRQKIAYLRQQSFDLKTQIAQLRQR
modifications: also: rhodamine or biotin label, site not given here
notes: Heterodimer partner in the chymotrypsin assays; Both labelled forms are written as one molecule
B4: binds [3].

B5: reporter peptide (Example 9, TEV) (peptide)
peptide: KGRMRCLEDRVENLYSQSYHLENEVARLRRLVGELAAK
modifications: not fully specified; also: homodimer
notes: Forms a homodimer; All labelled forms are written as one molecule (6:1 ratio R:F or biotin:F)
B5: binds [4].

B6: reporter peptide 2 (Example 10), labeled with rhodamine (peptide)
peptide: LRQRIQCLRYRIRRLRRASQALRQRIAQLKQR
modifications: also: rhodamine label, site not given here
notes: Heterodimer partner in the thrombin assay
B6: binds [5].
